One molecule from patent publication US20090291083A1, “BARB4 TARGET, ANTIBODY DESIGNATED BARB4, BARB4 RELATED ANTIBODIES, AND METHODS OF MAKING AND USING SAME” (PATRYS LIMITED, priority 2008, published 2009) can be followed below.

Test in all cases: MTT cell proliferation assay (Table 2)
Holding throughout (type): cell-based, human
For orientation: Formazan colour is commonly taken as a measure of viable cells.

The subject of one assay is MDA-MB-231. The conditions noted are these: EC50. How it is done:
(§1) BARB4 was also evaluated for inhibition of proliferation of other cancer cell lines, including BxPC-3, COLO 205, H460, MDA-MB-231 and MIAPaCa-2 cells, as well as HT-29, HCT-116, BxPC-3, PANC-1, A549, PC-3 and HCT116 cells. In brief, various human cancer cell lines obtained from the American Type Culture Collection (ATCC) were established using standard in vitro culture methods and ATCC recommended media in 175 cm2 BD tissue culture treated flasks. In particular, MDAMB-231 cultures were incubated in a humidified 37° C., 100% air incubator, and BxPC-3, COLO 205, H460 and MIAPaCa-2 cultures were incubated in a humidified 37° C., 5% CO2, 95% air incubator. Cultures were sub-cultivated regularly to maintain log phase growth. All cell lines were brought up from cryopreservation using the original recommended ATCC media type and supplements. Cell line specific seeding densities were based on historical data from MIR Preclinical Services for growth over a 72 hr period.
(§2) On the day of IC50 plate seeding, the adherent cells were removed from the flasks for each cell line using trypsin EDTA, 1× (Cell Gro #25-053-CI). Trypsin was deactivated using complete media and the cells were pooled (each line done separately). The pooled cells in complete media were counted using trypan blue exclusion with a Neubauer Bright-Line® hemacytometer. The percent viability for each cell line was as follows:
(§3) Based on live cell counts, each suspension was then diluted in complete media (containing required supplements) to achieve the desired seeding density for each cell line. Once seeded, the cells were allowed to attach to the plates overnight and then treated with BA4 or cisplatin 24 hr post-seeding.
(§4) BARB4 was serially diluted 1:2 (2× final conc. in dilution reservoir=1600 μg/ml) in media to achieve a final 800 μg/ml starting concentration in the top dosage wells of the treatment plate by diluting 1:2 when transferred from the reservoir to the treatment plate. Antibody was added to columns 1 through 10 of the treatment plate. Column 11 was for cells+media only control and column 12 was for a media only blank. Cisplatin (positive control) was manufactured by Sigma (# M4394, lot 087K1349) and supplied as a fine, dark yellow powder, in an amber vial, stored at room temperature and housed in a covered box to prevent exposure to light. Cisplatin was previously dissolved in 0.9% saline to make a clear, colorless 4 mM stock solution, aliquoted and frozen at −20° C. Frozen aliquots were quickly thawed by holding the tubes in hand, placed on wet ice and diluted (2× conc. dilution reservoir) to achieve a final 1 mM starting concentration in the top dosage wells of the treatment plate (diluted 1:2 when transferred from the dilution reservoir to the treatment plate). Serial dilutions of 1:4 were made from wells 1 through 10 of the dilution reservoir prior to transfer to the treatment plate.
(§5) The BARB4 stock solution (10.5 mg/ml) was prepared by dilution in complete media according to the table below for a final starting treatment concentration of 800 μg/ml. The 4 mM stock solution of cisplatin in 0.9% saline was diluted in complete media for a final starting treatment concentration of 1 mM.
(§6) Cells were exposed to BARB4 or cisplatin for a 24 hr period. The plates were incubated overnight at 37° C. At 24 hr and 48 hr post-treatment, the MTT assay was performed as described below.
(§7) The anti-proliferative activity of BARB4 and cisplatin was evaluated using the MTT cell proliferation assay (ATCC catalog #30-1010K). The assay is based on the reduction of yellow tetrazolium MTT (3-(4,5-dimethylthiazolyl-2)-2,5-diphenyltetrazolium bromide) by metabolically active cells forming purple formazan crystals. […]

The next assay deals with MIAPaCa-2. The conditions noted are these: EC50. On the procedure:
as §1, §2, §3, §4, §5, §6, §7

In a further assay the test system is COLO 205. The note with it: EC50. How it is done: as §1, §2, §3, §4, §5, §6, §7
The subject of another assay is H460. The note with it: EC50. How it is done:
as §1, §2, §3, §4, §5, §6, §7

The next assay concerns BxPC-3. The note with it: for IC50, BA4 (24 hr): MTT 24 hr post-treatment; for IC50, BA4 (48 hr): MTT 48 hr post-treatment. How it is done: as §1, §2, §3, §4, §5, §6, §7
Setting [1] is: BxPC-3, b280: really EC50 of total observed effect.

B1: BARB4: human IgG antibody produced by hybridoma DSMZ Deposit No. DSM ACC2876; heavy chain SEQ ID NOs:1, 3, 5, 7, light chain SEQ ID NO:9 (antibody, V domains shown)
VH: QVQLVESGGGVVQPGRSLRLSCAASGFRFTTHGMHWVRQAPGKGLEWVAVISYNGRNKYYADYVNGRFTISRDDSRDTVFLQMNSLRPEDTAMYYCAKVRGDGYGDYGYFDYWGHGTLVSVSS
VL: QSALTQPRSVSGSPGQSVTISCTGTYNYVSWYQQHPGKAPKLMIFDVSRRSSGVPDRFSGSKSGNTASLTISGLQAEDEADYYCCSYGGTYLYVFGTGTTVTVLGQ
With B1, the “IC50, BA4 (24 hr)” value was 154 mg/L with MDA-MB-231 (MTT 24 hr post-treatment); 34.9 mg/L in the assay with MIAPaCa-2 (MTT 24 hr post-treatment); 66.8 mg/L with COLO 205 (MTT 24 hr post-treatment); 413 mg/L in the assay with H460 (MTT 24 hr post-treatment); over 800 mg/L in the assay with BxPC-3 (setting [1]); over 800 mg/L with BxPC-3 (BxPC-3 repeat, EC50). The “IC50, BA4 (48 hr)” value with MDA-MB-231 (MTT 48 hr post-treatment) was 193 mg/L; in the assay with MIAPaCa-2 (MTT 48 hr post-treatment), 21.1 mg/L; with COLO 205 (MTT 48 hr post-treatment) it was 2.78 mg/L; with H460 (MTT 48 hr post-treatment) it was over 800 mg/L; with BxPC-3 (setting [1]) it was over 800 mg/L; with BxPC-3 (BxPC-3 repeat, EC50), over 800 mg/L.
